The source of these data is patent WO2021223719A1 (dated 2021).

As a reminder, the EC50 is the concentration that produces a half-maximal response. Low values mean greater potency, high ones weaker potency.

To fix the notation:
B1: mAb06 (26E7D2) (antibody, human IgG1, kappa, V domains shown)
VH: QVQLQQPGAELVKPGASVKLSCKVSGYTFTSYWIHWVKQRPGRGLEWIGRIDPISGGANYNEKFKTKATLTVDKPSSTAYMQLSSLTSEDSAVYYCARWGGGDYWGHGTTLTVSS
VL: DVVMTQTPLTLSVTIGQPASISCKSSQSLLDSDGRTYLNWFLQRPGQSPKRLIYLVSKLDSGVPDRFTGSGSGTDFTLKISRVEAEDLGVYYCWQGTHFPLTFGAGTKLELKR
notes: Tested as the murine hybridoma antibody
B2: mAb02 (8B3H4) (antibody, human IgG1, kappa, V domains shown)
VH: QVQVQQPGAELVKPGASVRLSCKASGYTFTTYWMHWVKQRPGQGLEWIGMIHPNSDSINYNEKFKSKATLIVDKSSSTFYMQLSSLTSEDSAVYYCARTDGYYAPYFAMDYWGQGTSVTVSS
VL: DIQMTQTTSSLSASLGDRVTISCRASQDIRDNLNWYQQKPDGTVKLLIYYKSRSHSGVPSRFSGSGSGTDYSLTISNLEQEDIATYFCQQGNTLPFTFGSGTKLEIKR
notes: as for B1
B3: mAb07 (27C5E11) (antibody, V domains shown)
VH: QVQLQQPGAELVKPGASVKLSCKASGYTFTSYWMHWVKQRPGQGLEWIGMIHPNGDSTNYNEKFKTKATLTVDKSSSTAYMQLSSLTSEDSAVYYCARTDGYYAPYFAMDYWGQGTSVTVSS
VL: DIQMTQSTSSLSASLGDRVTISCRASQDINNYLNWYQQKPDGTVKLLIYYTSRLHLGVPSRFSGSGSGTDYSLTISNLEQEDIATYFCQQGNTLPFTVGSGTKLEIK
B4: mAb023 (75H6C7) (antibody, V domains shown)
VH: QAQLQQPGAELVMPGASVKLSCKASGYTFTNYWMNWMKQRPGQGLEWIGEIDPSDSDKNYNQKFKDKATLTVDKSSSTAYMQLSSLTSEDSAVYYCAGGYYGMDFWGQGTSVTVSS
VL: DVVMTQTPLSLPVSLGDQASISCRSSQSLENSKGNTYLNWYVQKPGQSPQLLIYRVSTRFSGVLDRFSGSGSGTDFTLKISRVEAEDLGVYFCLQLTHVPFTFGSGTKLEIK
B5: mAb020 (52H8C4) (antibody, human IgG1, kappa, V domains shown)
VH: EVMLVESGGGLVKPGGSLKLSCAASGFTFSSYTMSWVRQTPEKRLEWVATITGGGGDTFYPDSVKGRFTISRDNAKNTLYLQVSSLRSEDTAVYHCARQYYDYDGGAMDYWGQGTSVTVSS
VL: DIVLTQSPASLAVSLGQRAIISCKASQSVSFAGTGLMHWYQQKPGQQPKLLIYRASNLEAGVPTRFSGSGSRTDFTLNIHPVEEDDAATYYCQQSREYPRTFGGGTKLEIKR
notes: as for B1

In the test the target is FMC63-scFv-mFc protein. The test is described as follows: ELISA, plate coated with FMC63-scFv-mFc, biotin-labelled FMC63-scFv-mFc for detection.
As to B1, a half-maximal effect (EC50) was put at 0.0299 µg/mL. Under B2 stands 0.023 µg/mL; under B3, 0.099 µg/mL; under B4, 0.0512 µg/mL. Regarding B5, the EC50 amounted to 0.113 µg/mL.
